Reference: paper PMC10509710, “Development and validation of a purification system for functional full-length human SR-B1 and CD36” (The Journal of Biological Chemistry, 2023)

Biological target: oxidized low-density lipoprotein (oxLDL) (oxidized with CuSO4 (residues not told))
Test: MST; Cy5-labeled receptor (RED-NHS, lysines) at constant 20 nM, ligand in a 16-point 1:1 dilution series; exchange buffer (50 mM Hepes pH 7.5, 150 mM NaCl, 0.025% LMNG, 0.005% CHS); 25 °C, 40% MST power; apparent Kd, one-site specific binding; molar values from average molecular weights (267.5 kDa HDL, 3500 kDa oxLDL)
Conditions: both partners purified

B1: human full-length cluster of differentiation 36 (CD36), glycosylated (receptor, UniProt P16671 1-472, looked up)
chain: MGCDRNCGLIAGAVIGAVLAVFGGILMPVGDLLIQKTIKKQVVLEEGTIAFKNWVKTGTEVYRQFWIFDVQNPQEVMMNSSNIQVKQRGPYTYRVRFLAKENVTQDAEDNTVSFLQPNGAIFEPSLSVGTEADNFTVLNLAVAAASHIYQNQFVQMILNSLINKSKSSMFQVRTLRELLWGYRDPFLSLVPYPVTTTVGLFYPYNNTADGVYKVFNGKDNISKVAIIDTYKGKRNLSYWESHCDMINGTDAASFPPFVEKSQVLQFFSSDICRSIYAVFESDVNLKGIPVYRFVLPSKAFASPVENPDNYCFCTEKIISKNCTSYGVLDISKCKEGRPVYISLPHFLYASPDVSEPIDGLNPNEEEHRTYLDIEPITGFTLQFAKRLQVNLLVKPSEKIQVLKNLKRNYIVPILWLNETGTIGDEKANMFRSQVTGKINLLGLIEMILLSVGVVMFVAFMISYCACRSKTIK
modifications: glycosylated (Sf9); labeled with Cy5 via lysine residues in the MST
notes: CD36, human, full length, 472 amino acids as printed; the methods print a C-terminal hemaglutinin A secretion signal and an N-terminal PreScission cut site, His10 and FLAG; In detergent micelles when purified; also called glycosylated CD36; source: Sf9 cells, baculovirus (MOI 5): on cells and in lysate; also purified (LMNG/CHS solubilisation, TALON cobalt resin, desalting)
**Q.** How did the Kd turn out when B1 was run?
**A.** Its Kd is 343 ± 286 nM.
